Results reported in article PMC3017119, “Structural Basis for the Recognition of Cellular mRNA Export Factor REF by Herpes Viral Proteins HSV-1 ICP27 and HVS ORF57” (PLoS Pathogens, 2011).

Legend:
GST-REF2-I = GST-REF2-I pull down of 35S-radiolabelled ICP27 fragments; assay type: binding, murine; settings: 35S-radiolabelled protein from rabbit reticulocytes, glutathione beads, RB100 buffer pH 7.5, 10 µg/ml RNAse A; SDS-PAGE, PhosphoImage
Excerpt: To confirm the position of REF-binding domains within ICP27 and ORF57 and to minimise the size of constructs for more detailed NMR mapping, a series of fragments derived from HSV-1 ICP27 were screened for binding to GST-REF2-I using pull down assays (Fig. 1). […] The REF-binding fragment of ORF57 aa 8–120 identified previously similarly interacted with the same fragments of REF (Fig. 1D).
Figure 1 Identification of regions for the interactions between REF and ICP27/ORF57. (A) Subdivision of ICP27, ORF57 and REF2-I in fragments. […] (C) Fusion of the ICP27^103–138 peptide to GST allows a specific pull down of REF, REF^1–155 (NM) and REF^54–155 (Δ53) and a very weak pull down of the REF^1–70 (N); no interaction is detected with the control Ras protein. (D) Same pull down assay as panel C but using GST fusion of ORF57 aa 8–120 in place of ICP27.
GST or GST protein fusions were first immobilised on 30 µl slurry glutathione-coated beads (GE Healthcare) before 8 µl ^35S-radiolabelled proteins synthesised in rabbit reticulocytes (Promega) were added to the binding reactions in RB100 buffer (25 mM HEPES pH 7.5/100 mM KOAc/10 mM MgCl2/1 mM DTT/0.05% Triton X-100/10% glycerol) in presence of 10 µg/ml RNAse A. Washed and eluted protein complexes were resolved on 15% SDS-PAGE stained with Coomassie blue and analysed by PhosphoImage. […]

[1] = tested on: REF^156–218 (REF2-I C-terminal domain); assay: NMR 1H-15N correlation spectra of 15N-labelled REF^156–218 with added viral protein constructs; assay type: binding, murine; settings: 2-fold excess of viral construct; 15N-HSQC

B1: ICP27^1–138: recombinant fragment aa 1–138 of HSV-1 ICP27 (protein)
chain: MATDIDMLIDLGLDLSDSDLDEDPPEPAESRRDDLESDSSGECSSSDEDMEDPHGEDGPEPILDAARPAVRPSRPEDPGVPSTQTPRPTERQGPNDPQPAPHSVWSRLGARRPSCSPEQHGGKVARLQPPPTKAQPAR
modifications: 35S-radiolabelled
notes: recombinant fragment aa 1–138 of HSV-1 ICP27
Binding to GST-REF2-I in pull down (GST-REF2-I): essentially the same as that of the full-length protein
Changes in 1H-15N correlation spectra of 15N-REF^156–218 upon addition [1]: No significant changes
